This note sets out measurements from article PMC4479312.

The target of this assay is integrin α4β7 (human α4 and β7 subunits co-expressed on 293T cells) (human) (UniProt P13612).
UniProt P13612, sequence (P13612 34-1032, chain 1 of 2): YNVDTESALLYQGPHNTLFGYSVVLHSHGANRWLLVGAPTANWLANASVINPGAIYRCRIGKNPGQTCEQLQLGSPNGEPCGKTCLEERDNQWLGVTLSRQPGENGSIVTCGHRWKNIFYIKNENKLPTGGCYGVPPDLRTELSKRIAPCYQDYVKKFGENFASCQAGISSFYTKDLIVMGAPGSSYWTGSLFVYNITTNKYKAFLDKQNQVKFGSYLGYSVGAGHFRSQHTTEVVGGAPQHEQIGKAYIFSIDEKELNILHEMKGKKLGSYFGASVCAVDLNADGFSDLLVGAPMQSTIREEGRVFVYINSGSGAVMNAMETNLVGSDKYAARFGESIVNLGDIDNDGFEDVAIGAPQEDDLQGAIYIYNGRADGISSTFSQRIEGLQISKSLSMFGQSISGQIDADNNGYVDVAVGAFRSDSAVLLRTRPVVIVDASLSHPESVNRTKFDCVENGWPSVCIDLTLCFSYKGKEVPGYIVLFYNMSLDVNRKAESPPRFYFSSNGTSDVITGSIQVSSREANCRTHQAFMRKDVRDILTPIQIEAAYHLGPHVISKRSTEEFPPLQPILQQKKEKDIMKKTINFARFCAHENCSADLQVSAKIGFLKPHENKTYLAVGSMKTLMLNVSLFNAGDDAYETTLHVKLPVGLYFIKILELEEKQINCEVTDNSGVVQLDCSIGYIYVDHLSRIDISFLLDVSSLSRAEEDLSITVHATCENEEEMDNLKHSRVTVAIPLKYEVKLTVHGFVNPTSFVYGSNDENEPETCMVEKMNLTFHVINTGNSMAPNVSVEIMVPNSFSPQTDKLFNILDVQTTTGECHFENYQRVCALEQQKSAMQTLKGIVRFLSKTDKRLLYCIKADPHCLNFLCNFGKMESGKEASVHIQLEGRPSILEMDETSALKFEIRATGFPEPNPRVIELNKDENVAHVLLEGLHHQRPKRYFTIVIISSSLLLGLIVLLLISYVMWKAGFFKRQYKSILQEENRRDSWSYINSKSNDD
UniProt P13612, sequence (P26010 20-798, chain 2 of 2, further chain): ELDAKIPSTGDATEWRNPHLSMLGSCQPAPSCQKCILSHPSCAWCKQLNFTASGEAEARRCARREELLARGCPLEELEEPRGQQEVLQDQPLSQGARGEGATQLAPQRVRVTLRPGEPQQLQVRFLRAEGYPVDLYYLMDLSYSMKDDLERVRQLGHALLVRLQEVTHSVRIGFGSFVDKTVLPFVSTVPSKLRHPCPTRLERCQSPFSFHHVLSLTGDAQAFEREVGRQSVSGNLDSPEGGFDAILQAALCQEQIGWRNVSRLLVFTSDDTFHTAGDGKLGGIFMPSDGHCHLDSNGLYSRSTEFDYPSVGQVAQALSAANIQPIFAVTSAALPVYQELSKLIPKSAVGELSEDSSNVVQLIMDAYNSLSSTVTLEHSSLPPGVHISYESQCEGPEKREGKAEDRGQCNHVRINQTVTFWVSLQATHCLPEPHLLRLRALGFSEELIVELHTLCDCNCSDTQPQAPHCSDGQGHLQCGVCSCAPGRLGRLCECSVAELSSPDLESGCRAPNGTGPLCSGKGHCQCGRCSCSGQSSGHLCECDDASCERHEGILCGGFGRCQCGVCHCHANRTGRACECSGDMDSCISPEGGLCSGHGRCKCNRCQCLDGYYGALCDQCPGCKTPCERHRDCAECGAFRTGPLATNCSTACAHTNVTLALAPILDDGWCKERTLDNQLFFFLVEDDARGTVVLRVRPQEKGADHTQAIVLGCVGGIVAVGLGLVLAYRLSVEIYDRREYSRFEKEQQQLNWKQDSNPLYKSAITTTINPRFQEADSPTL
“HIV-1 subtype C CAP88 transmitted/founder (T/F) envelope glycoprotein on infectious envelope clone virus (natural protein)”: the α4β7 dependence for replication (Act-1 mAb inhibition of p24 in ATRA-treated CD4+ T cells) is over 50%. In turn, “HIV-1 subtype C CAP200 transmitted/founder (T/F) envelope glycoprotein (SDV motif) on infectious envelope clone virus (natural protein)” returned a α4β7 dependence for replication (Act-1 mAb inhibition of p24 in ATRA-treated CD4+ T cells) of over 50%. The figure for “HIV-1 subtype C CAP206 transmitted/founder (T/F) envelope glycoprotein on infectious envelope clone virus (natural protein)” is over 50%; for “HIV-1 subtype C CAP225 transmitted/founder (T/F) envelope glycoprotein (SDI motif) on infectious envelope clone virus (natural protein)” it is over 50%.
